Columns and labels:
IgE-Fc(N265Q,N371Q) [1] = target: T1, IgE-Fc(N265Q,N371Q) (human, UniProt P01854); test: ITC
T1 chain: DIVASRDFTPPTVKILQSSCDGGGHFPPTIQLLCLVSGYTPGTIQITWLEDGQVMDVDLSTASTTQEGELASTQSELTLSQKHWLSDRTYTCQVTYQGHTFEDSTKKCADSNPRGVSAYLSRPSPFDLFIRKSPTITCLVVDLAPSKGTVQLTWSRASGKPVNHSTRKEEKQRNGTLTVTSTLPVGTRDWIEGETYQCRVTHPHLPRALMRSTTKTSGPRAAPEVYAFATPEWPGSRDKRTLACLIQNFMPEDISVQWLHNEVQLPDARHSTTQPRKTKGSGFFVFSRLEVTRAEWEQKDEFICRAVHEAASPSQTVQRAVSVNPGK

IgE-Fc(N265Q,N371Q) [2] = target: T1, IgE-Fc(N265Q,N371Q); test: ITC
IgE-Fc(N265Q,N371Q) [3] = target: T1, IgE-Fc(N265Q,N371Q); test: SPR
IgE-Fc(N265Q,N371Q) [4] = target: T1, IgE-Fc(N265Q,N371Q); test: stopped-flow fluorescence

B1: anti-ε-chain Fab (aεFab), anti-human IgE-Fc antibody in human IgG1 Fab format (Fab, V domains shown)
VH: QVQLQQSGPGLVKPSQTLSLTCGISGDSVSSNSAAWNWLRQSPSRGLEWLGRTYYRSKWYNDYAVSMKSRITINPDTSRNQFSLQLNSVTPEDTAVYYCARDGEISYDYYYYGMDVWGRGTLVTVSS
VL: QSVLTQPPSASGTPGQRVTISCSGSSSNIGNNGVNWYQQVPGKPPKLLIYYDDLLPSGVSDRFSGSKSGTSASLAISGLQSEDEADYYCEAWDDSLDGVVFGGGTKLTVL
For B1, the “dH1 (first site)” value (IgE-Fc(N265Q,N371Q) [1]) was -3.5 ± 0.1 kcal/mol, the “dH2 (second site)” value (IgE-Fc(N265Q,N371Q) [1]) was -1.3 ± 0.1 kcal/mol and the Kd (IgE-Fc(N265Q,N371Q) [2]) was 40 ± 20 nM. The dH (IgE-Fc(N265Q,N371Q) [2]) was -3.5 ± 0.1 kcal/mol, the Kd (IgE-Fc(N265Q,N371Q) [3]) was 95 nM and the kon (IgE-Fc(N265Q,N371Q) [4]) was 670000 M⁻¹ s⁻¹.
